This note sets out measurements from paper PMC3985704.

The target of this experiment is T1, unmodified Dictyostelium Skp1A (Dictyostelium discoideum), P52285.
T1 chain: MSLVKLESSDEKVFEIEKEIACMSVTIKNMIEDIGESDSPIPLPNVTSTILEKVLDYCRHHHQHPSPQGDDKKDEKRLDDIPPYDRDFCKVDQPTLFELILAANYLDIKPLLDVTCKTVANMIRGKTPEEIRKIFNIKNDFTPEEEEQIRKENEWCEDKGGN
In words: SAXS. Particulars: remark: other sources report otherwise.

B1: unmodified Dictyostelium Skp1A, P52285 1-162 (natural protein)
chain: MSLVKLESSDEKVFEIEKEIACMSVTIKNMIEDIGESDSPIPLPNVTSTILEKVLDYCRHHHQHPSPQGDDKKDEKRLDDIPPYDRDFCKVDQPTLFELILAANYLDIKPLLDVTCKTVANMIRGKTPEEIRKIFNIKNDFTPEEEEQIRKENEWCEDKGGN
With B1, the stoichiometry N – broadly, the number of molecules, sites or subunits per partner or assembly – came out at 2.
